According to publication PMC4091826 (Molecular Biology of the Cell, 2014):
No end group written: not given here.

T1: fluorescein-labeled P5 peptide (also: fluorescein label, position not given here)
T1 peptide: CALLLSAPRR

B1: Ssc1 E467A suppressor S201 (E467A, D519E), purified (natural protein, S. cerevisiae, UniProt P0CS90 24-654, looked up)
chain: QSTKVQGSVIGIDLGTTNSAVAIMEGKVPKIIENAEGSRTTPSVVAFTKEGERLVGIPAKRQAVVNPENTLFATKRLIGRRFEDAEVQRDIKQVPYKIVKHSNGDAWVEARGQTYSPAQIGGFVLNKMKETAEAYLGKPVKNAVVTVPAYFNDSQRQATKDAGQIVGLNVLRVVNEPTAAALAYGLEKSDSKVVAVFDLGGGTFDISILDIDNGVFEVKSTNGDTHLGGEDFDIYLLREIVSRFKTETGIDLENDRMAIQRIREAAEKAKIELSSTVSTEINLPFITADASGPKHINMKFSRAQFETLTAPLVKRTVDPVKKALKDAGLSTSDISEVLLVGGMSRMPKVVETVKSLFGKDPSKAVNPDEAVAIGAAVQGAVLSGEVTDVLLLDVTPLSLGIETLGGVFTRLIPRNTTIPTKKSQIFSTAAAGQTSVEIRVFQGARELVRDNKLIGNFTLAGIPPAPKGVPQIEVTFDIDADGIINVSARDKATNKESSITVAGSSGLSENEIEQMVNDAEKFKSQDEARKQAIETANKADQLANDTENSLKEFEGKVDKAEAQKVRDQITSLKELVARVQGGEEVNAEELKTKTEELQTSSMKLFEQLYKNDSNNNNNNNGNNAESGETKQ
B2: Ssc1 E467A suppressor S202 (E467A, V524I), purified (natural protein, S. cerevisiae, UniProt P0CS90 24-654, looked up)
chain: QSTKVQGSVIGIDLGTTNSAVAIMEGKVPKIIENAEGSRTTPSVVAFTKEGERLVGIPAKRQAVVNPENTLFATKRLIGRRFEDAEVQRDIKQVPYKIVKHSNGDAWVEARGQTYSPAQIGGFVLNKMKETAEAYLGKPVKNAVVTVPAYFNDSQRQATKDAGQIVGLNVLRVVNEPTAAALAYGLEKSDSKVVAVFDLGGGTFDISILDIDNGVFEVKSTNGDTHLGGEDFDIYLLREIVSRFKTETGIDLENDRMAIQRIREAAEKAKIELSSTVSTEINLPFITADASGPKHINMKFSRAQFETLTAPLVKRTVDPVKKALKDAGLSTSDISEVLLVGGMSRMPKVVETVKSLFGKDPSKAVNPDEAVAIGAAVQGAVLSGEVTDVLLLDVTPLSLGIETLGGVFTRLIPRNTTIPTKKSQIFSTAAAGQTSVEIRVFQGARELVRDNKLIGNFTLAGIPPAPKGVPQIEVTFDIDADGIINVSARDKATNKDSSITIAGSSGLSENEIEQMVNDAEKFKSQDEARKQAIETANKADQLANDTENSLKEFEGKVDKAEAQKVRDQITSLKELVARVQGGEEVNAEELKTKTEELQTSSMKLFEQLYKNDSNNNNNNNGNNAESGETKQ
B3: Ssc1 E467A suppressor S203 (E467A, D519Y), purified (natural protein, S. cerevisiae, UniProt P0CS90 24-654, looked up)
chain: QSTKVQGSVIGIDLGTTNSAVAIMEGKVPKIIENAEGSRTTPSVVAFTKEGERLVGIPAKRQAVVNPENTLFATKRLIGRRFEDAEVQRDIKQVPYKIVKHSNGDAWVEARGQTYSPAQIGGFVLNKMKETAEAYLGKPVKNAVVTVPAYFNDSQRQATKDAGQIVGLNVLRVVNEPTAAALAYGLEKSDSKVVAVFDLGGGTFDISILDIDNGVFEVKSTNGDTHLGGEDFDIYLLREIVSRFKTETGIDLENDRMAIQRIREAAEKAKIELSSTVSTEINLPFITADASGPKHINMKFSRAQFETLTAPLVKRTVDPVKKALKDAGLSTSDISEVLLVGGMSRMPKVVETVKSLFGKDPSKAVNPDEAVAIGAAVQGAVLSGEVTDVLLLDVTPLSLGIETLGGVFTRLIPRNTTIPTKKSQIFSTAAAGQTSVEIRVFQGARELVRDNKLIGNFTLAGIPPAPKGVPQIEVTFDIDADGIINVSARDKATNKYSSITVAGSSGLSENEIEQMVNDAEKFKSQDEARKQAIETANKADQLANDTENSLKEFEGKVDKAEAQKVRDQITSLKELVARVQGGEEVNAEELKTKTEELQTSSMKLFEQLYKNDSNNNNNNNGNNAESGETKQ
B4: Ssc1 E467A suppressor S204 (E467A, D519N), purified (natural protein, S. cerevisiae, UniProt P0CS90 24-654, looked up)
chain: QSTKVQGSVIGIDLGTTNSAVAIMEGKVPKIIENAEGSRTTPSVVAFTKEGERLVGIPAKRQAVVNPENTLFATKRLIGRRFEDAEVQRDIKQVPYKIVKHSNGDAWVEARGQTYSPAQIGGFVLNKMKETAEAYLGKPVKNAVVTVPAYFNDSQRQATKDAGQIVGLNVLRVVNEPTAAALAYGLEKSDSKVVAVFDLGGGTFDISILDIDNGVFEVKSTNGDTHLGGEDFDIYLLREIVSRFKTETGIDLENDRMAIQRIREAAEKAKIELSSTVSTEINLPFITADASGPKHINMKFSRAQFETLTAPLVKRTVDPVKKALKDAGLSTSDISEVLLVGGMSRMPKVVETVKSLFGKDPSKAVNPDEAVAIGAAVQGAVLSGEVTDVLLLDVTPLSLGIETLGGVFTRLIPRNTTIPTKKSQIFSTAAAGQTSVEIRVFQGARELVRDNKLIGNFTLAGIPPAPKGVPQIEVTFDIDADGIINVSARDKATNKNSSITVAGSSGLSENEIEQMVNDAEKFKSQDEARKQAIETANKADQLANDTENSLKEFEGKVDKAEAQKVRDQITSLKELVARVQGGEEVNAEELKTKTEELQTSSMKLFEQLYKNDSNNNNNNNGNNAESGETKQ
B5: E467A-D416R (protein, UniProt P0CS90 24-654, looked up, variant E467A D416R)
Import motor subunit, …: QSTKVQGSVIGIDLGTTNSAVAIMEGKVPKIIENAEGSRTTPSVVAFTKEGERLVGIPAKRQAVVNPENTLFATKRLIGRRFEDAEVQRDIKQVPYKIVKHSNGDAWVEARGQTYSPAQIGGFVLNKMKETAEAYLGKPVKNAVVTVPAYFNDSQRQATKDAGQIVGLNVLRVVNEPTAAALAYGLEKSDSKVVAVFDLGGGTFDISILDIDNGVFEVKSTNGDTHLGGEDFDIYLLREIVSRFKTETGIDLENDRMAIQRIREAAEKAKIELSSTVSTEINLPFITADASGPKHINMKFSRAQFETLTAPLVKRTVDPVKKALKDAGLSTSDISEVLLVGGMSRMPKVVETVKSLFGKDPSKAVNPDEAVAIGAAVQGAVLSGEVTDVLLLRVTPLSLGIETLGGVFTRLIPRNTTIPTKKSQIFSTAAAGQTSVEIRVFQGARELVRDNKLIGNFTLAGIPPAPKGVPQIEVTFDIDADGIINVSARDKATNKDSSITVAGSSGLSENEIEQMVNDAEKFKSQDEARKQAIETANKADQLANDTENSLKEFEGKVDKAEAQKVRDQITSLKELVARVQGGEEVNAEELKTKTEELQTSSMKLFEQLYKNDSNNNNNNNGNNAESGETKQ
B6: S1-D519E: suppressor S1-D519E subcloned into the E467A-D411R backbone (protein)
chain: QSTKVQGSVIGIDLGTTNSAVAIMEGKVPKIIENAEGSRTTPSVVAFTKEGERLVGIPAKRQAVVNPENTLFATKRLIGRRFEDAEVQRDIKQVPYKIVKHSNGDAWVEARGQTYSPAQIGGFVLNKMKETAEAYLGKPVKNAVVTVPAYFNDSQRQATKDAGQIVGLNVLRVVNEPTAAALAYGLEKSDSKVVAVFDLGGGTFDISILDIDNGVFEVKSTNGDTHLGGEDFDIYLLREIVSRFKTETGIDLENDRMAIQRIREAAEKAKIELSSTVSTEINLPFITADASGPKHINMKFSRAQFETLTAPLVKRTVDPVKKALKDAGLSTSDISEVLLVGGMSRMPKVVETVKSLFGKDPSKAVNPDEAVAIGAAVQGAVLSGEVTDVLLLDVTPLSLGIETLGGVFTRLIPRNTTIPTKKSQIFSTAAAGQTSVEIRVFQGARELVRDNKLIGNFTLAGIPPAPKGVPQIEVTFDIDADGIINVSARDKATNKESSITVAGSSGLSENEIEQMVNDAEKFKSQDEARKQAIETANKADQLANDTENSLKEFEGKVDKAEAQKVRDQITSLKELVARVQGGEEVNAEELKTKTEELQTSSMKLFEQLYKNDSNNNNNNNGNNAESGETKQ
modifications: left off: His6, end not stated, state not stated
B7: S2-V524I: suppressor S2-V524I subcloned into the E467A-D411R backbone (protein)
chain: QSTKVQGSVIGIDLGTTNSAVAIMEGKVPKIIENAEGSRTTPSVVAFTKEGERLVGIPAKRQAVVNPENTLFATKRLIGRRFEDAEVQRDIKQVPYKIVKHSNGDAWVEARGQTYSPAQIGGFVLNKMKETAEAYLGKPVKNAVVTVPAYFNDSQRQATKDAGQIVGLNVLRVVNEPTAAALAYGLEKSDSKVVAVFDLGGGTFDISILDIDNGVFEVKSTNGDTHLGGEDFDIYLLREIVSRFKTETGIDLENDRMAIQRIREAAEKAKIELSSTVSTEINLPFITADASGPKHINMKFSRAQFETLTAPLVKRTVDPVKKALKDAGLSTSDISEVLLVGGMSRMPKVVETVKSLFGKDPSKAVNPDEAVAIGAAVQGAVLSGEVTDVLLLDVTPLSLGIETLGGVFTRLIPRNTTIPTKKSQIFSTAAAGQTSVEIRVFQGARELVRDNKLIGNFTLAGIPPAPKGVPQIEVTFDIDADGIINVSARDKATNKDSSITIAGSSGLSENEIEQMVNDAEKFKSQDEARKQAIETANKADQLANDTENSLKEFEGKVDKAEAQKVRDQITSLKELVARVQGGEEVNAEELKTKTEELQTSSMKLFEQLYKNDSNNNNNNNGNNAESGETKQ
modifications: left off: His6, end not stated, state not stated
B8: S7-N508T: suppressor S7-N508T subcloned into the E467A-D411R backbone (protein)
chain: QSTKVQGSVIGIDLGTTNSAVAIMEGKVPKIIENAEGSRTTPSVVAFTKEGERLVGIPAKRQAVVNPENTLFATKRLIGRRFEDAEVQRDIKQVPYKIVKHSNGDAWVEARGQTYSPAQIGGFVLNKMKETAEAYLGKPVKNAVVTVPAYFNDSQRQATKDAGQIVGLNVLRVVNEPTAAALAYGLEKSDSKVVAVFDLGGGTFDISILDIDNGVFEVKSTNGDTHLGGEDFDIYLLREIVSRFKTETGIDLENDRMAIQRIREAAEKAKIELSSTVSTEINLPFITADASGPKHINMKFSRAQFETLTAPLVKRTVDPVKKALKDAGLSTSDISEVLLVGGMSRMPKVVETVKSLFGKDPSKAVNPDEAVAIGAAVQGAVLSGEVTDVLLLDVTPLSLGIETLGGVFTRLIPRNTTIPTKKSQIFSTAAAGQTSVEIRVFQGARELVRDNKLIGNFTLAGIPPAPKGVPQIEVTFDIDADGIITVSARDKATNKDSSITVAGSSGLSENEIEQMVNDAEKFKSQDEARKQAIETANKADQLANDTENSLKEFEGKVDKAEAQKVRDQITSLKELVARVQGGEEVNAEELKTKTEELQTSSMKLFEQLYKNDSNNNNNNNGNNAESGETKQ
modifications: left off: His6, end not stated, state not stated

Assays:
[1] = target: T1, fluorescein-labeled P5 peptide; experiment: fluorescence polarisation
yeast cells = experiment: Growth phenotype; assay type: cell-based, S. cerevisiae; conditions: minimal medium or 5-FOA medium, serial dilutions

Molecule | substrate release upon ATP binding [1] [%] | growth phenotype, in words (yeast cells)
B1 | > 50 | –
B2 | > 50 | –
B3 | > 50 | –
B4 | > 50 | –
B5 | – | semidominant phenotype
B6 | – | significant growth rescue of the E467A-D411R–associated lethality at different temperatures on 5-FOA medium
B7 | – | significant growth rescue of the E467A-D411R–associated lethality at different temperatures on 5-FOA medium
B8 | – | significant growth rescue of the E467A-D411R–associated lethality at different temperatures on 5-FOA medium
